Data reported in US20260117274A1, “ORTHOGONALLY CROSSLINKED PROTEINS, METHODS OF MAKING, AND USES THEREOF” (The Research Foundation for The State University of New York, priority 2022, published 2026).

Columns and labels:
HeLa cells = assay: Flow cytometry uptake of AF488-labeled NSa1(+10) proteins in HeLa cells; type: cell-based; details: for percentage of fluorescent cells / MFI(R-1) Trial 1 / MFI(R-1) Trial 2 / MFI(R-1) Trial 3: 4 hours; for MFI(R-1) Trial 1 / MFI(R-1) Trial 2 / MFI(R-1) Trial 3: Protein 500 nM, 37°C
Experimental: (§1) To assess cellular uptake of the supercharged NSa1 proteins, we first removed the N-terminal His-tag after TEV cleavage to obtain two intact NSa1(+10) mutants encoding either BocK or CATK-1. We then reacted the mutants with Alexa Fluor 488-NHS modest labeling yield of 20-23% (FIG. 22). We then carried out a flow cytometry assay to quantify the uptake efficiency of the NSa1(+10) mutants. In brief, HeLa cells were treated with 100 or 500 nM of NSa1(+10) proteins at 37° C. for 4 hours. After washing cells three times with PBS containing 20 U/mL heparin to remove the surface-bound proteins, cells were collected and analyzed by flow cytometry. We observed significant monobody uptake when protein concentrations reached 500 nM. […] Since the kinetically stable protein folds show enhanced proteolytic resistance due to their rigid conformations with limited local openings, we assessed the effect of orthogonal crosslinking on proteolytic stability of the monobody. Thus, we incubated the CATK-1-crosslinked NSa1(+10) with cathepsin B ¾ an enzyme responsible for the degradation of protein cargoes in the endosomes ¾ and monitored monobody stability by mass spectrometry.
Fluorescent labeling of NSa1 and flow cytometry. After TEV-cleavage and further cation exchange chromatography, the purified NSa1 proteins were buffer exchanged into the basic buffer (100 mM Pi, 450 mM NaCl, pH 8.3), and then incubated with AF488-NHS (Lumiprobe) (2-fold molar, optimized to afford non-labeled and mono-labeled protein as major species) at 4° C. with gentle shaking in darkness overnight. Then, thorough dialysis was employed to remove excess dye and protein concentrations were determined by Nanodrop (eNSa1=28880 M^−1 cm^−1, eNSa1-plus10=27390 M^−1 cm^−1; CF280=0.11; Aprotein=A280−A493*CF280).
HeLa cells were seeded in a 48-well plate and grown in DMEM supplemented with 10% FBS and 10 μg/mL Gentamycin (Gibco) and 2 μg/mL Plasmocin at 37° C., 5% CO2 until ˜80% confluency. Cells were washed twice with pre-warmed PBS before switching to serum-free DMEM with Alexa-488 labeled protein. Cells were incubated at 37° C. for 4 hours. The cells were washed three times with PBS (including 20 U/mL heparin), trypsinized, and collected with 1.5 mL tubes. After brief centrifugation (400 g, 5 min) at room temperature, cells were collected and resuspended in PBS for flow cytometry analysis.

Cathepsin B = target: T1, Cathepsin B (Homo sapiens, UniProt P07858); assay: NSa1 proteolytical stability assay (QTOF-LC/MS); type: in vitro ADME
T1 construct: purchased Novus Biologicals
Experimental: as §1
NSa1 proteolytical stability assay. In a 1.5-mL microcentrifuge tube, TEV-cleaved, purified NSa1 (1.5 μM in 50 mM phosphate, 500 mM NaCl, pH 7.0) was incubated with Cathepsin B (Novus Biologicals; 0.065 μM) at 37° C. […]

B1: NSa1(+10)-A13BocK: non-crosslinked +10 charged monobody NSa1 encoding BocK at position 13; SEQ ID NO: 50 (protein)
chain: MGSSHHHHHHSSGTENLYFQGVSSKPTKLRVVRXTPTSLKIKWDAPAKTVDYYVITYGETGRGGYAWQRFEVPGSKRTATIKGLKPGVDYTITVYAGYKGYPTYYSSPISINYRT
modifications: BocK non-natural residue at position 13; VARIANT 34 X is 1/2-carboxy-4-aryltriazole lysine or Ne-(tert-butoxycarbonyl) lysine
- percentage of fluorescent cells (HeLa cells; 500 nM): 13.6%
- MFI(R-1) Trial 1 (HeLa cells): 6726.24
- MFI(R-1) Trial 2 (HeLa cells): 6507.23
- MFI(R-1) Trial 3 (HeLa cells): 6855.84

B2: NSa1(+10)-A13CATK-1: +10 charged monobody NSa1 encoding CATK-1 at Ala-13, crosslinked to Tyr-92; SEQ ID NO: 50 (protein)
chain: MGSSHHHHHHSSGTENLYFQGVSSKPTKLRVVRXTPTSLKIKWDAPAKTVDYYVITYGETGRGGYAWQRFEVPGSKRTATIKGLKPGVDYTITVYAGYKGYPTYYSSPISINYRT
modifications: CATK-1 at Ala13 crosslinked to Tyr92; VARIANT 34 X is 1/2-carboxy-4-aryltriazole lysine or Ne-(tert-butoxycarbonyl) lysine
- half-life relative to non-crosslinked NSa1(+10)-A13BocK (Cathepsin B; Cathepsin B, 37°C): three times longer
- half-life (Cathepsin B; NSa1 1.5 μM with Cathepsin B 0.065 μM at 37°C): 126 min
- higher mean fluorescence intensity than NSa1(+10)-A13BocK treated cells (HeLa cells; 500 nM): 40%
- percentage of fluorescent cells (HeLa cells; 500 nM): 14.8%
- MFI(R-1) Trial 1 (HeLa cells): 9561.61
- MFI(R-1) Trial 2 (HeLa cells): 9020.17
- MFI(R-1) Trial 3 (HeLa cells): 9337.41
